Measured values: publication PMC4605646 (PLoS ONE, 2015)

Target: human α-synuclein (human, UniProt P37840 1-140)
Test: cell-based or functional assay

B1: CsgE (natural protein)
chain: VEVEVPGLLTDHTVSSIGHDFYRAFSDKWESDYTGNLTINERPSARWGSWITITVNQDVIFQTFLFPLKRDFEKTVVFALIQTEEALNRRQINQALLSTGDLAHDEF
With B1 the “lag phase of α-synuclein amyloid formation (ThT fluorescence, 70 μM α-synuclein, 37°C, agitation) at CsgE-to-α-synuclein molar ratios of 1-to-3, 1-to-10 and 1-to-100” value was 4 fold.
